Experiments:
[1] = target: p53-like peptide W23A, displayed on E. coli; experiment: flow cytometry on cells
[2] = target: p53-like peptide F19A, displayed on E. coli; experiment: flow cytometry on cells

## Mdm2-GST (from UniProt Q00987 1-491) (natural protein)
[1]
  relative Kd (against the wild type p53-like peptide): > 10000
[2]
  relative Kd (against the wild type p53-like peptide): > 10000

— article PMC10773984
